T1: mKO–FtsZ (filamenting temperature-sensitive Z fused to mKO) (Escherichia coli, UniProt P0A9A6 1-383)
T1 construct: filamenting temperature-sensitive Z (FtsZ), Escherichia coli; also called pSAV072; pSAV–mKO–FtsZ; source: E. coli TB28 ∆zapA or WT strain, expressed from plasmid pSAV072, in living cells; not shown: mKO, N-terminal, kept
T1 sequence (looked up): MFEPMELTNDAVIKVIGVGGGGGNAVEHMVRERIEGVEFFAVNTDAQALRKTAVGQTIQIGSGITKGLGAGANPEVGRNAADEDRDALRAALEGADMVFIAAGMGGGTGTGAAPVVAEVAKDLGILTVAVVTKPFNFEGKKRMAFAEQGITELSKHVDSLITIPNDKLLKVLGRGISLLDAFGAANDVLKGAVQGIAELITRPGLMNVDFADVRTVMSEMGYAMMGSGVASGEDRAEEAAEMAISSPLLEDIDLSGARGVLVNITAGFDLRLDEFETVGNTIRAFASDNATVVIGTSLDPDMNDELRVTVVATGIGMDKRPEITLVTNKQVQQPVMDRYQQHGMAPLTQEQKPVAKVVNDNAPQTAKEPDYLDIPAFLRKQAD

T2: mKO–PBP1a (inner membrane protein PBP1a fused to mKO) (UniProt P02918 1-850)
T2 construct: PBP1a, inner membrane protein; Negative control partner in the FRET assay; also called pBB004; pSAV–mKO–PBP1a; source: E. coli TB28 ∆zapA, expressed from plasmid pBB004, in living cells; not shown: mKO, N-terminal, kept
T2 sequence (looked up): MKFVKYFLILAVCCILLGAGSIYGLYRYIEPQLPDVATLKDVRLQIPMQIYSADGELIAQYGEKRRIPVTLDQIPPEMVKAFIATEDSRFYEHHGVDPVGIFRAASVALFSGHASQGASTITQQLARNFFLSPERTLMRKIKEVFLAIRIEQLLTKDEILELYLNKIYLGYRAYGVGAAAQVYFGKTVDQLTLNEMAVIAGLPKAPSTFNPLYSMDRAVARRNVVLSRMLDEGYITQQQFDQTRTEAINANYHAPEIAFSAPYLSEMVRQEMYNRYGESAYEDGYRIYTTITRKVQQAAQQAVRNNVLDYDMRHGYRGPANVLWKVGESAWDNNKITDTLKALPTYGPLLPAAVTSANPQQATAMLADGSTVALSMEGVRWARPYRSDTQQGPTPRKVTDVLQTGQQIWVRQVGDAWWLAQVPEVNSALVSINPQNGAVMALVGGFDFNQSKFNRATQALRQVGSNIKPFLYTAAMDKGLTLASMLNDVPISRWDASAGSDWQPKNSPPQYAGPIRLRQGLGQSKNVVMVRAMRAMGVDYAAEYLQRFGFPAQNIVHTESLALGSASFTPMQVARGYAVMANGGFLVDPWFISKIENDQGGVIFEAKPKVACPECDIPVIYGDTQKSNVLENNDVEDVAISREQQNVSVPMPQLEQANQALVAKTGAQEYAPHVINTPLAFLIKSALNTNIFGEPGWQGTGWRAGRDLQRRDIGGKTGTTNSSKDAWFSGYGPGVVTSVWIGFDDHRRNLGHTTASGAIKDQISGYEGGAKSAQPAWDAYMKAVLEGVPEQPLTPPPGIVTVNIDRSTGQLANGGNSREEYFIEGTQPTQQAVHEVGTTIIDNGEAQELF


Experiments:
mKO–FtsZ (filamenting …) = molecular target: T1, mKO–FtsZ (filamenting …); test: FRET or BRET; in vivo FRET in E. coli TB28 ∆zapA cells; mKO fusion (donor) and mCh fusion (acceptor) expressed from plasmids; energy transfer efficiency (EfA) by spectral unmixing; settings: partners not purified
[1] = molecular target: T2, mKO–PBP1a (inner membrane protein PBP1a …); test: as above; settings: partners not purified

| EfA (energy transfer efficiency) (mKO–FtsZ (filamenting …)) [%] | EfA (energy transfer efficiency) [1] [%] | Binder |
| --- | --- | --- |
| 4 | < 1.7 | mCh–ZapA (wild-type Z-associated protein A fused to mCh) (natural protein, Escherichia coli, UniProt P0ADS2 1-109, looked up, Z-associated protein A (ZapA), Escherichia coli; also called mCh–ZapA^WT; ZapA^WT; source: E. coli TB28 ∆zapA or WT strain, expressed from plasmid pSAV077, in living cells; not shown: mCh, N-terminal, kept) MSAQPVDIQIFGRSLRVNCPPDQRDALNQAADDLNQRLQDLKERTRVTNTEQLVFIAALNISYELAQEKAKTRDYAASMEQRIRMLQQTIEQALLEQGRITEKTNQNFE |
| – | < 1.7 | mCh–ZapA^I83E (in vitro non-tetramerizing ZapA mutant fused to mCh) (natural protein, Escherichia coli, UniProt P0ADS2 1-109, looked up, Z-associated protein A (ZapA), Escherichia coli, with I83E; made by exchanging zapA in pSAV077 with zapA^I83E from pRP071; also called pNM137; pTHV–mCh–ZapA^I83E; source: E. coli TB28 ∆zapA or WT strain, expressed from plasmid pNM137, in living cells; not shown: mCh, N-terminal, kept) MSAQPVDIQIFGRSLRVNCPPDQRDALNQAADDLNQRLQDLKERTRVTNTEQLVFIAALNISYELAQEKAKTRDYAASMEQRERMLQQTIEQALLEQGRITEKTNQNFE |
| – | < 1.7 | mCh–PBP1b (PBP1b fused to mCh) (natural protein, UniProt P02919 1-844, looked up, PBP1b; Negative control in the FRET assay; also called pBB008; pTHV–mCh–PBP1b; source: E. coli TB28 ∆zapA, expressed from plasmid pBB008, in living cells; not shown: mCh, N-terminal, kept) MAGNDREPIGRKGKPTRPVKQKVSRRRYEDDDDYDDYDDYEDEEPMPRKGKGKGKGRKPRGKRGWLWLLLKLAIVFAVLIAIYGVYLDQKIRSRIDGKVWQLPAAVYGRMVNLEPDMTISKNEMVKLLEATQYRQVSKMTRPGEFTVQANSIEMIRRPFDFPDSKEGQVRARLTFDGDHLATIVNMENNRQFGFFRLDPRLITMISSPNGEQRLFVPRSGFPDLLVDTLLATEDRHFYEHDGISLYSIGRAVLANLTAGRTVQGASTLTQQLVKNLFLSSERSYWRKANEAYMALIMDARYSKDRILELYMNEVYLGQSGDNEIRGFPLASLYYFGRPVEELSLDQQALLVGMVKGASIYNPWRNPKLALERRNLVLRLLQQQQIIDQELYDMLSARPLGVQPRGGVISPQPAFMQLVRQELQAKLGDKVKDLSGVKIFTTFDSVAQDAAEKAAVEGIPALKKQRKLSDLETAIVVVDRFSGEVRAMVGGSEPQFAGYNRAMQARRSIGSLAKPATYLTALSQPKIYRLNTWIADAPIALRQPNGQVWSPQNDDRRYSESGRVMLVDALTRSMNVPTVNLGMALGLPAVTETWIKLGVPKDQLHPVPAMLLGALNLTPIEVAQAFQTIASGGNRAPLSALRSVIAEDGKVLYQSFPQAERAVPAQAAYLTLWTMQQVVQRGTGRQLGAKYPNLHLAGKTGTTNNNVDTWFAGIDGSTVTITWVGRDNNQPTKLYGASGAMSIYQRYLANQTPTPLNLVPPEDIADMGVDYDGNFVCSGGMRILPVWTSDPQSLCQQSEMQQQPSGNPFDQSSQPQQQPQQQPAQQEQKDSDGVAGWIKDMFGSN |
